Data from the supplement of paper PMC10724198.
± gives the standard deviation of the averaged measurements.

The sequences below were run on Saccharomyces cerevisiae (assay: protein stability index of tFT-peptide fusion (C-terminal peptide) (PSI (0-1 scale)); higher = more stable (slower turnover)). Conditions: genetic background: wild type; temperature: 30 C.
Method: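 Multiplexed protein stability (MPS) profiling in S. cerevisiae. Random 12-aa peptides (tFT-X12 library) are fused to the C-terminus of a sfGFP-mCherry tandem fluorescent timer, after mCherry and a GGGS linker. Cells are FACS-sorted into 8 mCherry/sfGFP bins and deep-sequenced. The protein stability index (PSI) is the read-weighted bin average, scaled from 0 (unstable) to 1 (stable). Only peptides with >10 reads are reported; cells were grown at 30 °C in SC-His with glucose.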
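Also: PSI is a weighted mean of sequencing reads over stability bins, variants kept only with over 10 reads, mCherry proximal and sfGFP distal, peptide attached via GGGS linker.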

Sequence	protein stability index
WWSASGGQDVLK	0.67 ± 0.061
FFPRVLRLRYPS	0.754 ± 0.085
KKKKKETKNAQQ	0.685 ± 0.0077
CCRTMLGSLVRS	0.659 ± 0.012
LPPRPTPPPPPP	0.71 ± 0.056
GLYYRGPSKKER	0.73 ± 0.02
LRSPSDSLALPL	0.666 ± 0.028
LPLPVLPCVPPV	0.595 ± 0.028
GARRLGLMVFDG	0.669 ± 0.066
RKNKLKQNKKYR	0.718 ± 0.012
PTSSPAPPLFAF	0.67 ± 0.028
GAVAAVPRGGIL	0.715 ± 0.018
RSLGGGVGARFV	0.695 ± 0.037
FFPPAHFAPQPA	0.719 ± 0.015
PDRIQPRSVLLP	0.7293 ± 0.0047
LGHVHLIGDIVC	0.7042 ± 0.0039
LGVGGGGRGVRG	0.728 ± 0.12
SPPSPSTPPARP	0.747 ± 0.15
PPSPPPGTCPPD	0.617 ± 0.064
HAPALSSTPRLL	0.6836 ± 0.0064
DIRRSSMFKPKS	0.702 ± 0.074
HFGPRTTLCAPD	0.666 ± 0.034
LRPPPPSAGAPP	0.708 ± 0.088
RCNCTTTTLRSK	0.6046 ± 0.0019
RFCRSGCWFRWG	0.607 ± 0.015

Sequence	protein stability index
NFTSYDIYLSCS	0.671 ± 0.016
PPPHPPRRLLPP	0.69 ± 0.065
PPPPRSLPLLPP	0.67 ± 0.073
RRKEEEGKEVRK	0.666 ± 0.01
CFSRKGIRIKRP	0.734 ± 0.0098
PLPPPPIPLAPP	0.708 ± 0.054
AGPPPERDPGAS	0.684 ± 0.069
CARSFGLFGTAT	0.694 ± 0.075
DAELYLPSPTRL	0.666 ± 0.064
SLPLPSPRPILR	0.64 ± 0.0092
RGATAKGQRRVR	0.686 ± 0.046
AWSVRVGGSATA	0.695 ± 0.033
SYTLSGYGSRDN	0.698 ± 0.018
FRYLAVSPFGGL	0.749 ± 0.057
KKKEKKIKKTIK	0.724 ± 0.048
SDMTHRSCTLLC	0.633 ± 0.028
HSVPSCPKFSII	0.66732 ± 0.00044
DETRQTYRNRKG	0.728 ± 0.12
SFGVDPDNCVGF	0.607 ± 0.061
PLLPSLPPLLAP	0.651 ± 0.05
SKKSKTQSNKNQ	0.683 ± 0.02
PLPPSLRPALSP	0.7188 ± 0.00078
PPARPDCGIRTP	0.672 ± 0.026
PPRSRPLPALPS	0.647 ± 0.044
GEKKKAILGKRK	0.62 ± 0.011

Sequence	protein stability index
ESIEVGTGDWGG	0.673 ± 0.053
SNHTIIGNVVHF	0.7131 ± 0.0056
GGNMPNNCWSRI	0.698 ± 0.022
DSFGSERYEPCK	0.622 ± 0.0097
LLRGDVVALRAH	0.618 ± 0.052
SRASPPCSLLSS	0.696 ± 0.051
LHTSTRPLPPTS	0.675 ± 0.067
SCPPSFIPVLSP	0.667 ± 0.035
RLEGNRGPWRQD	0.786 ± 0.1
HWTLRRGTGIEL	0.6693 ± 0.0061
GREEDLVAPPFN	0.715 ± 0.054
PPYSQPSSTPPH	0.706 ± 0.092
IRPSGVVPPRAG	0.65 ± 0.048
KPALPPITPNLC	0.6727 ± 0.0036
RRGCTKYGSYII	0.696 ± 0.082
PSSSFFFLSSYL	0.706 ± 0.043
WKEVGGSRILLV	0.6033 ± 0.0031
SVCFPPCSSLPP	0.71 ± 0.19
LLLDRGISLLLL	0.607 ± 0.026
TRLSRGTRVEYR	0.651 ± 0.025
RAPPAARIASGL	0.677 ± 0.026
LSPHSSLTPPPH	0.616 ± 0.037
RRRGRGAVGATR	0.716 ± 0.073
GCASAAMFPEEL	0.691 ± 0.053
DFVGVVGFLVAG	0.65 ± 0.032

Sequence	protein stability index
SSPSPSPPHLHP	0.712 ± 0.02
SASPVAGWLGGP	0.677 ± 0.044
KKTKKKRGEYKK	0.714 ± 0.017
LSRLRVLLTPIS	0.56 ± 0.075
ELVRIVREEYRC	0.685 ± 0.1
ARGARTCDLIRW	0.717 ± 0.035
TCVASLSVLCLL	0.574 ± 0.048
RGGVGWGVFRVS	0.679 ± 0.064
IFSSFCPASFFL	0.757 ± 0.031
RVSWRLSYLCPV	0.694 ± 0.14
PPPFLTPPPPHS	0.709 ± 0.026
EKKTNEKNSYNL	0.659 ± 0.016
SPLPLFSPCPPP	0.693 ± 0.014
RELLYLPPPSDP	0.821 ± 0.051
AVRVLLISSSGT	0.641 ± 0.031
ESVVKNDVTYVQ	0.691 ± 0.041
LAPSPPPPPLPL	0.677 ± 0.01
KEHTNKDEMPKE	0.705 ± 0.074
SLPLVLHGHRLY	0.672 ± 0.027
TEGGKIEGGGRK	0.682 ± 0.087
LGRSGCRGGYVG	0.622 ± 0.014
VVADNGASGWAW	0.7579 ± 0.0033
CSGPARERPVRF	0.709 ± 0.062
SGRVMRAFSCGV	0.6228 ± 0.0036
PFLEPPYPLLRS	0.704 ± 0.17

Sequence	protein stability index
RLILLPLFLSDS	0.729 ± 0.092
SGLERGCSRCWH	0.687 ± 0.0088
PSTLPLRLPRMF	0.644 ± 0.057
QMTCADGVDCLL	0.589 ± 0.018
CLVSVDYFPPKL	0.75 ± 0.16
VGVRRAGGARGW	0.634 ± 0.088
SFGLSAGGDDRW	0.74 ± 0.016
VRGLGRLSRAEV	0.77 ± 0.014
GTRQWPARSDVV	0.692 ± 0.031
FEHFKCRRRPVI	0.723 ± 0.044
GLRAAGCRAVGG	0.672 ± 0.025
LPPRAPPTCFPL	0.658 ± 0.12
GKRTVLFTRCRQ	0.5888 ± 0.0055
PLPPPPTLSCTQ	0.701 ± 0.11
TLFLFVSSFCMG	0.47 ± 0.067
PPRSLPPSPPSP	0.7384 ± 0.0047
LPLQYPPSLLRL	0.6655 ± 0.0065
SLGNTRRTKKSI	0.636 ± 0.054
LGVWGGGRGVRG	0.7206 ± 0.0051
RGGVGGSVSFWW	0.707 ± 0.072
PLLLPPVPPFCF	0.674 ± 0.12
RRVYGRELHPSQ	0.731 ± 0.029
RGARRGAPVCGW	0.71 ± 0.0075
PFPPLPPPPSPC	0.71 ± 0.014
VGGGGECCFLEG	0.826 ± 0.1

Sequence	protein stability index
VSAFLPLFLLTP	0.601 ± 0.055
PPYRVVLPLFVP	0.508 ± 0.033
LCFPHDFFSSSS	0.7768 ± 0.0058
PPHLIPTLLSPP	0.721 ± 0.02
PSSSDHDTRQKK	0.708 ± 0.058
PSCPAFPSPPPS	0.696 ± 0.014
TVACILPLAQSL	0.706 ± 0.075
RVWIWHPPTVRD	0.625 ± 0.016
SPAPPPGVPPSR	0.687 ± 0.03
RCTRQVHPLTFR	0.66 ± 0.038
APTRPPRPNLFH	0.625 ± 0.018
LVLLPLPLPLFP	0.578 ± 0.015
GSGIFHPVDLGL	0.688 ± 0.02
GGNSRASAVKGA	0.702 ± 0.1
LVSLSPCPSSPL	0.671 ± 0.014
ICCASALPFDIS	0.784 ± 0.19
FRCGLDFRWYVI	0.62 ± 0.012
WCGGGGVACLLL	0.693 ± 0.0086
PFPRPVSPSPPP	0.743 ± 0.037
LHRLRLASRAAL	0.719 ± 0.068
VRVVGVSGGEGG	0.644 ± 0.027
